In patent US20190322724:

Tests used:
[1] = molecular target: wild type human TIMP-2 with C-terminal His6 tag (WT TIMP-2-His6)
[2] = molecular target: WT TIMP-2-His6 tyrosine phosphorylated by c-Src

TIMP-2 Y90E-His6, sequence (chain, as listed by the source Y90E): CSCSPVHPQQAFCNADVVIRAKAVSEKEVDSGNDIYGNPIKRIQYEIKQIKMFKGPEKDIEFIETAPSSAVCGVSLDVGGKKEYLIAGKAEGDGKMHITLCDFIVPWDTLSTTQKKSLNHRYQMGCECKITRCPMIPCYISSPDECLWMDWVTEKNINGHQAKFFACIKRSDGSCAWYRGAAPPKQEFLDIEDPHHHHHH
TIMP-2 Y90F-His6, sequence (chain, as listed by the source Y90F): as the sequence (chain, as listed by the source Y90E) above, with E64F counted along it

B1: active 62 kDa MMP-2 (protein)
chain: YNFFPRKPKWDKNQITYRIIGYTPDLDPETVDDAFARAFQVWSDVTPLRFSRIHDGEADIMINFGRWEHGDGYPFDGKDGLLAHAFAPGTGVGGDSHFDDDELWTLGEGQVVRVKYGNADGEYCKFPFLFNGKEYNSCTDTGRSDGFLWCSTTYNFEKDGKYGFCPHEALFTMGGNAEGQPCKFPFRFQGTSYDSCTTEGRTDGYRWCGTTEDYDRDKKYGFCPETAMSTVGGNSEGAPCVFPFTFLGNKYESCTSAGRSDGKMWCATTANYDDDRKWGFCPDQGYSLFLVAAHEFGHAMGLEHSQDPGALMAPIYTYTKNFRLSQDDIKGIQELYGASPDIDLGTGPTPTLGPVTPEICKQDIVFDGIAQIRGEIFFFKDRFIWRTVTPRDKPMGPLLVATFWPELPEKIDAVYEAPQEEKAVFFAGNEYWIYSASTLERGYPKPLTSLGLPPDVQRVDAAFNWSKNKKTYIFAGDKFWRYNEVKKKMDPGFPKLIADAWNAIPDNLDAVVDLQGGGHSYFFKGAYYLKLENQSLKSVKFGSIKSDWLGC
MMP-2 enzymatic activity on a fluorogenic peptide substrate (TIMP-2 Y90E-His6): phosphomimetic TIMP-2 Y90E inhibitory function correlates with significantly less MMP-2 enzymatic activity | MMP-2 enzymatic activity on a fluorogenic peptide substrate [1]: as expected WT TIMP-2 acts as an MMP-2 inhibitor | MMP-2 enzymatic activity on a fluorogenic peptide substrate [2]: phosphoTIMP-2 (pWT) is significantly (˜25 percent) more inhibitory than the non-phosphorylated WT TIMP-2 toward MMP-2 | MMP-2 enzymatic activity on a fluorogenic peptide substrate (TIMP-2 Y90F-His6): non-phosphorylatable Y90F displayed a slightly less MMP-2 inhibitory activity compared the WT TIMP-2
